Measurements reported in US12104181B2, “Compositions and methods for treating viral infections targeting TRIM7” (THE BOARD OF REGENTS OF THE UNIVERSITY OF TEXAS SYSTEM, priority 2021, dated 2024).

B1: TRIM8: human RING type E3 ligase expressed from lentiviral vector (protein, UniProt Q9BZR9 1-551, looked up)
E3 ubiquitin-protein ligase …: MAENWKNCFEEELICPICLHVFVEPVQLPCKHNFCRGCIGEAWAKDSGLVRCPECNQAYNQKPGLEKNLKLTNIVEKFNALHVEKPPAALHCVFCRRGPPLPAQKVCLRCEAPCCQSHVQTHLQQPSTARGHLLVEADDVRAWSCPQHNAYRLYHCEAEQVAVCQYCCYYSGAHQGHSVCDVEIRRNEIRKMLMKQQDRLEEREQDIEDQLYKLESDKRLVEEKVNQLKEEVRLQYEKLHQLLDEDLRQTVEVLDKAQAKFCSENAAQALHLGERMQEAKKLLGSLQLLFDKTEDVSFMKNTKSVKILMDRTQTCTSSSLSPTKIGHLNSKLFLNEVAKKEKQLRKMLEGPFSTPVPFLQSVPLYPCGVSSSGAEKRKHSTAFPEASFLETSSGPVGGQYGAAGTASGEGQSGQPLGPCSSTQHLVALPGGAQPVHSSPVFPPSQYPNGSAAQQPMLPQYGGRKILVCSVDNCYCSSVANHGGHQPYPRSGHFPWTVPSQEYSHPLPPTPSVPQSLPSLAVRDWLDASQQPGHQDFYRVYGQPSTKHYVTS
B2: RNF113: human RING type E3 ligase expressed from lentiviral vector (protein, UniProt O15541 2-343, looked up)
E3 ubiquitin-protein ligase …: AEQLSPGKAVDQVCTFLFKKPGRKGAAGRRKRPACDPEPGESGSSSDEGCTVVRPEKKRVTHNPMIQKTRDSGKQKAAYGDLSSEEEEENEPESLGVVYKSTRSAKPVGPEDMGATAVYELDTEKERDAQAIFERSQKIQEELRGKEDDKIYRGINNYQKYMKPKDTSMGNASSGMVRKGPIRAPEHLRATVRWDYQPDICKDYKETGFCGFGDSCKFLHDRSDYKHGWQIERELDEGRYGVYEDENYEVGSDDEEIPFKCFICRQSFQNPVVTKCRHYFCESCALQHFRTTPRCYVCDQQTNGVFNPAKELIAKLEKHRATGEGGASDLPEDPDEDAIPIT
B3: RNF214: human RING type E3 ligase expressed from lentiviral vector (protein, UniProt Q8ND24 2-703, looked up)
RING finger protein 214: AASEVAGVVANAPSPPESSSLCASKSDEGLPDGLSTKDSAQKQKNSPLLSVSSQTITKENNRNVHLEHSEQNPGSSAGDTSAAHQVVLGENLIATALCLSGSGSQSDLKDVASTAGEEGDTSLRESLHPVTRSLKAGCHTKQLASRNCSEEKSPQTSILKEGNRDTSLDFRPVVSPANGVEGVRVDQDDDQDSSSLKLSQNIAVQTDFKTADSEVNTDQDIEKNLDKMMTERTLLKERYQEVLDKQRQVENQLQVQLKQLQQRREEEMKNHQEILKAIQDVTIKREETKKKIEKEKKEFLQKEQDLKAEIEKLCEKGRREVWEMELDRLKNQDGEINRNIMEETERAWKAEILSLESRKELLVLKLEEAEKEAELHLTYLKSTPPTLETVRSKQEWETRLNGVRIMKKNVRDQFNSHIQLVRNGAKLSSLPQIPTPTLPPPPSETDFMLQVFQPSPSLAPRMPFSIGQVTMPMVMPSADPRSLSFPILNPALSQPSQPSSPLPGSHGRNSPGLGSLVSPHGPHMPPAASIPPPPGLGGVKASAETPRPQPVDKLEKILEKLLTRFPQCNKAQMTNILQQIKTARTTMAGLTMEELIQLVAARLAEHERVAASTQPLGRIRALFPAPLAQISTPMFLPSAQVSYPGRSSHAPATCKLCLMCQKLVQPSELHPMACTHVLHKECIKFWAQTNTNDTCPFCPTLK
B4: TRIM4: human RING type E3 ligase expressed from lentiviral vector (protein, UniProt Q9C037 1-500, looked up)
E3 ubiquitin-protein ligase …: MEAEDIQEELTCPICLDYFQDPVSIECGHNFCRGCLHRNWAPGGGPFPCPECRHPSAPAALRPNWALARLTEKTQRRRLGPVPPGLCGRHWEPLRLFCEDDQRPVCLVCRESQEHQTHAMAPIDEAFESYRTGNFDIHVDEWKRRLIRLLLYHFKQEEKLLKSQRNLVAKMKKVMHLQDVEVKNATQWKDKIKSQRMRISTEFSKLHNFLVEEEDLFLQRLNKEEEETKKKLNENTLKLNQTIASLKKLILEVGEKSQAPTLELLQNPKEVLTRSEIQDVNYSLEAVKVKTVCQIPLMKEMLKRFQVAVNLAEDTAHPKLVFSQEGRYVKNTASASSWPVFSSAWNYFAGWRNPQKTAFVERFQHLPCVLGKNVFTSGKHYWEVESRDSLEVAVGVCREDVMGITDRSKMSPDVGIWAIYWSAAGYWPLIGFPGTPTQQEPALHRVGVYLDRGTGNVSFYSAVDGVHLHTFSCSSVSRLRPFFWLSPLASLVIPPVTDRK
B5: TRIM6: human RING type E3 ligase expressed from lentiviral vector (protein, UniProt Q9C030 1-488, looked up)
Tripartite motif-containing …: MTSPVLVDIREEVTCPICLELLTEPLSIDCGHSFCQACITPNGRESVIGQEGERSCPVCQTSYQPGNLRPNRHLANIVRRLREVVLGPGKQLKAVLCADHGEKLQLFCQEDGKVICWLCERSQEHRGHHTFLVEEVAQEYQEKFQESLKKLKNEEQEAEKLTAFIREKKTSWKNQMEPERCRIQTEFNQLRNILDRVEQRELKKLEQEEKKGLRIIEEAENDLVHQTQSLRELISDLERRCQGSTMELLQDVSDVTERSEFWTLRKPEALPTKLRSMFRAPDLKRMLRVCRELTDVQSYWVDVTLNPHTANLNLVLAKNRRQVRFVGAKVSGPSCLEKHYDCSVLGSQHFSSGKHYWEVDVAKKTAWILGVCSNSLGPTFSFNHFAQNHSAYSRYQPQSGYWVIGLQHNHEYRAYEDSSPSLLLSMTVPPRRVGVFLDYEAGTVSFYNVTNHGFPIYTFSKYYFPTTLCPYFNPCNCVIPMTLRRPSS
B6: RNF38: human RING type E3 ligase expressed from lentiviral vector (protein, UniProt Q9H0F5 1-515, looked up)
E3 ubiquitin-protein ligase …: MACKISPGANSASLPGHPNKVICERVRLQSLFPLLPSDQNTTVQEDAHFKAFFQSEDSPSPKRQRLSHSVFDYTSASPAPSPPMRPWEMTSNRQPPSVRPSQHHFSGERCNTPARNRRSPPVRRQRGRRDRLSRHNSISQDENYHHLPYAQQQAIEEPRAFHPPNVSPRLLHPAAHPPQQNAVMVDIHDQLHQGTVPVSYTVTTVAPHGIPLCTGQHIPACSTQQVPGCSVVFSGQHLPVCSVPPPMLQACSVQHLPVPYAAFPPLISSDPFLIHPPHLSPHHPPHLPPPGQFVPFQTQQSRSPLQRIENEVELLGEHLPVGGFTYPPSAHPPTLPPSAPLQFLTHDPLHQEVSFGVPYPPFMPRRLTGRSRYRSQQPIPPPPYHPSLLPYVLSMLPVPPAVGPTFSFELDVEDGEVENYEALLNLAERLGEAKPRGLTKADIEQLPSYRFNPNNHQSEQTLCVVCMCDFESRQLLRVLPCNHEFHAKCVDKWLKANRTCPICRADASEVHRDSE
B7: TRIM1: human RING type E3 ligase expressed from lentiviral vector (protein, UniProt Q9UJV3 1-735, looked up)
Probable E3 ubiquitin-protein …: MGESPASVVLNASGGLFSLKMETLESELTCPICLELFEDPLLLPCAHSLCFSCAHRILVSSCSSGESIEPITAFQCPTCRYVISLNHRGLDGLKRNVTLQNIIDRFQKASVSGPNSPSESRRERTYRPTTAMSSERIACQFCEQDPPRDAVKTCITCEVSYCDRCLRATHPNKKPFTSHRLVEPVPDTHLRGITCLDHENEKVNMYCVSDDQLICALCKLVGRHRDHQVASLNDRFEKLKQTLEMNLTNLVKRNSELENQMAKLIQICQQVEVNTAMHEAKLMEECDELVEIIQQRKQMIAVKIKETKVMKLRKLAQQVANCRQCLERSTVLINQAEHILKENDQARFLQSAKNIAERVAMATASSQVLIPDINFNDAFENFALDFSREKKLLEGLDYLTAPNPPSIREELCTASHDTITVHWISDDEFSISSYELQYTIFTGQANFISKSWCSWGLWPEIRKCKEAVSCSRLAGAPRGLYNSVDSWMIVPNIKQNHYTVHGLQSGTRYIFIVKAINQAGSRNSEPTRLKTNSQPFKLDPKMTHKKLKISNDGLQMEKDESSLKKSHTPERFSGTGCYGAAGNIFIDSGCHYWEVVMGSSTWYAIGIAYKSAPKNEWIGKNASSWVFSRCNSNFVVRHNNKEMLVDVPPHLKRLGVLLDYDNNMLSFYDPANSLHLHTFDVTFILPVCPTFTIWNKSLMILSGLPAPDFIDYPERQECNCRPQESPYVSGMKTCH
B8: TRIM2: human RING type E3 ligase expressed from lentiviral vector (protein, UniProt Q9C040 1-744, looked up)
Tripartite motif-containing …: MASEGTNIPSPVVRQIDKQFLICSICLERYKNPKVLPCLHTFCERCLQNYIPAHSLTLSCPVCRQTSILPEKGVAALQNNFFITNLMDVLQRTPGSNAEESSILETVTAVAAGKPLSCPNHDGNVMEFYCQSCETAMCRECTEGEHAEHPTVPLKDVVEQHKASLQVQLDAVNKRLPEIDSALQFISEIIHQLTNQKASIVDDIHSTFDELQKTLNVRKSVLLMELEVNYGLKHKVLQSQLDTLLQGQESIKSCSNFTAQALNHGTETEVLLVKKQMSEKLNELADQDFPLHPRENDQLDFIVETEGLKKSIHNLGTILTTNAVASETVATGEGLRQTIIGQPMSVTITTKDKDGELCKTGNAYLTAELSTPDGSVADGEILDNKNGTYEFLYTVQKEGDFTLSLRLYDQHIRGSPFKLKVIRSADVSPTTEGVKRRVKSPGSGHVKQKAVKRPASMYSTGKRKENPIEDDLIFRVGTKGRNKGEFTNLQGVAASTNGKILIADSNNQCVQIFSNDGQFKSRFGIRGRSPGQLQRPTGVAVHPSGDIIIADYDNKWVSIFSSDGKFKTKIGSGKLMGPKGVSVDRNGHIIVVDNKACCVFIFQPNGKIVTRFGSRGNGDRQFAGPHFAAVNSNNEIIITDFHNHSVKVFNQEGEFMLKFGSNGEGNGQFNAPTGVAVDSNGNIIVADWGNSRIQVFDGSGSFLSYINTSADPLYGPQGLALTSDGHVVVADSGNHCFKVYRYLQ

System: coxsackievirus B3 (CVB3-GFP)
Type: cell-based
Conditions: HeLa cells, replicate R1; for Percent Infected R1: GFP-positive cells within RFP-positive gate

Molecule | Percent Infected R1 [%] | Z score R1
B1 | 70.1 | −0.235
B2 | 92 | 0.043
B3 | 93.9 | 0.067
B4 | 67.8 | −0.265
B5 | 67.4 | −0.27
B6 | 88.2 | −0.01
B7 | 82.1 | −0.083
B8 | 62.1 | −0.337
